PMC3502752
pKd: −log10 of the molar value.

Assays:
Conditions in all cases: ELISA: 20 mM Tris-HCl pH 7.5, 100 mM NaCl, room temperature, 1 h (washes with 0.02% Tween-20); SPR conditions not in the material
[1] = tested on: BV04-01 scFv VH A23P (mouse (lupus-prone)); assay: SPR
[2] = tested on: MRL-4 scFv VH P23A (mouse); assay: SPR
[3] = tested on: BV04-01 scFv (SCA04-01) (mouse (lupus-prone)); assay: SPR
MRL-4 scFv (mouse) [4] = assay: SPR
[5] = tested on: BV04-01 scFv VH A23P (mouse (lupus-prone)); assay: ELISA
[6] = tested on: MRL-4 scFv VH P23A (mouse); assay: ELISA
[7] = tested on: BV04-01 scFv (SCA04-01) (mouse (lupus-prone)); assay: ELISA
MRL-4 scFv (mouse) [8] = assay: ELISA

| Substance | pKd [1] | pKd [2] | pKd [3] | pKd (MRL-4 scFv (mouse) [4]) | binding signal (% of BV04-01 wild type) [5] | binding signal (% of MRL-4 wild type) [6] | binding signal [7] [%] | binding signal (MRL-4 scFv (mouse) [8]) [%] |
| --- | --- | --- | --- | --- | --- | --- | --- | --- |
| double-stranded DNA fragments (SPR ligand) | 6.54 | 5.07 | 8.74 | 7.77 | – | – | – | – |
| 254-bp PCR fragment (ELISA) | – | – | – | – | 1.2 | 4.6 | 100 | 100 |
